Article PMC8752837, “Structural basis of BAK activation in mitochondrial apoptosis initiation” (Nature Communications, 2022)
Substitutions are numbered along the chain they refer to. Names may count otherwise.

Tests used:
[1] = test system: BCL2allKO HCT116 cells expressing mC-BAK and BID; assay: Dox + TRAIL + CHX induced cell death by IncuCyte imaging of SYTOX Green uptake (direct activation); assay type: cell-based, human; conditions: TRAIL 200 ng/mL + CHX 0.5 µg/mL added at 6 h
Procedure: We achieved stable, constitutive expression of human BID in mC-BAK expressing BCL2allKO HCT116 by retroviral transduction based on pMX-human-BID-IRES-GFP. Amplification primers are included in Supplementary Table 4. We performed two rounds of FACS sorting gating on GFP-positive cells to enrich for populations of cells that express BID.
For coexpression of mC-BAK + BID, we treated cells with different doses of Dox for 24 h to induce expression of mC-BAK. At 6 h, we treated cells with TRAIL (200 ng/mL) + cycloheximide (CHX, 0.5 µg/mL) to promote BID activation under conditions of protein synthesis inhibition by CHX, and continued to record Incucyte imaging of SYTOX Green uptake up to 48 h. We blocked caspase activity with qVD (40 µM).

[2] = test system: BCL2allKO HCT116 cells reconstituted with Dox-inducible mC-BAK; assay: Dox-induced cell death by IncuCyte imaging of SYTOX Green uptake (autoactivation); assay type: cell-based, human; conditions: for SYTOX Green +ve counts/confluence AUC of kinetic traces: Fig 3d; for Dox-induced cell death: IncuCyte SYTOX Green up to 48 h; for AUC (48 hr) of SYTOX Green counts/confluence: mC-BAK BCL2allKO HCT116 + Dox + qVD, average, N = 3
From the text: For mammalian cell culture experiments, we cloned the full length human BAK cDNA into pCR 2.1 TOPO vector, mutated BAK as needed, and PCR amplified the BAK gene for cloning into the BamHI and NotI sites of pRETROX mCherry vector for retroviral transduction. Amplification and mutagenesis primers are included in Supplementary Table 4. To test direct BAK activation and BAK autoactivation in cells, we produced cells stably expressing mCherry-human BAK (mC-BAK) ± human BID (BID) on a genetic background devoid of the entire BCL-2 family repertoire (all 17 BCL-2 genes), BCL2allKO HCT116, as described by the Xu Luo laboratory. We expressed WT and mutant mC-BAK using the doxycycline (Dox)-based inducible Tet-On 3G retroviral system from the pRetroX-TRE3G-Puro^R in BCL2allKO HCT116 cells expressing the Tet3G from pRetroX-Tet3G-Blast^R. We selected cells with puromycin (2.5 µg/mL) and blasticidin (2 µg/mL) starting at 2 days after retroviral transduction. To enrich for populations of cells that express mC-BAK, we treated cells with low Dox dose (25 ng/mL) and fluorescence-activated cell sorted (FACS) the mCherry positive cells. We performed the enrichment twice before cell death analysis. One caveat of our cellular system is tagging BAK with N-terminal mCherry, which may affect folding efficiency, degradation, and BAK interactome.
(§1) We seeded cells in 24-well (100,000 cells/well), 96-well (15,000 cells/well), or 384-well (10,000 cells/well) plates coated with 10 µg/mL fibronectin. After ≥24 h of attachment and recovery, we induced cell death with Dox (up to 1000 ng/mL) and monitored SYTOX Green (25 nM) uptake by Incucyte imaging. This dye marks cells with compromised plasma membrane integrity. mC-BAK expressed before 24 h, which coincided with detectable cell death. We monitored Incucyte imaging for up to 48 h, followed by endpoint FACS analysis to measure the extent of cell death based on SYTOX Green positive cells on FACSCalibur systems (BD Biosciences). As expected, cells with low mCherry fluorescence were refractory to cell death.

[3] = test system: BCL2allKO HCT116 cells reconstituted with mC-BAK; assay: Endpoint FACS analysis of SYTOX Green positive cells; assay type: cell-based, human; conditions: average, N = 3
Procedure: as §1

BAK [4] = assay: Dye-based thermal shift assay (SYPRO Orange); assay type: physicochemical, human; conditions: rebuttal
Procedure: To control for effect of mutations on protein stability, which may confound interpretation of impairment in BAK autoactivation, we measured the Tm of BAK WT and mutants (Supplementary Fig. 3f).
(§2) We carried out TSA in 20 µL reactions in 384-well PCR plate (Cat# AB1384, Thermo Fisher Scientific) in 20 mM HEPES pH 7.0, 150 mM NaCl, 2 mM DTT), SYPRO ^TM Orange (5×) and 0.25 mg/mL purified BAK. To remove air bubbles we sealed assay plates with MicroAmp Optical Adhesive, incubated them for 2–5 min, and centrifuged them (1000 × rpm). We subjected the assay plates to 25–99 °C thermal gradient with 1°/minute increment and recorded fluorescence using Applied Biosystems Quant Studio 5. We performed three experiments in quadruplicate for each sample. We performed data processing and visualization in RISE, and final data analysis in Excel and GraphPad Prism. We also carried out dye-free TSA using capillary-based Prometheus NT.48 Nano Differential Scanning Fluorimetry (Nanotemper) in the same buffer conditions with 15 μM BAK. Melting temperature (Tm) values were obtained from the first derivative of melting scans.

BAK [5] = assay: Dye-free nano Differential Scanning Fluorimetry thermal shift assay; assay type: physicochemical, human; conditions: without DTT; mean of N = 3; Suppl. Fig. 7h
Procedure: Through rational design and structural analysis, we expand the list of activated BAK complexes, supporting requisite BH3 ligand-induced destabilization of helix α1 (see below).
as §2

[6] = Liposome permeabilization by WT and mutant BAK proteins (autoactivation, or direct activation by BID BH3); assay type: biochemical; conditions: no BH3 peptide; liposomes with […] DGS-NTA(Ni); Fig. 1a
Procedure: Human BAK-∆TM-His6 (BAK)[26] spontaneously permeabilizes liposomes above a certain dose (>100 nM, Fig. 1a). In these dye-release assays[43]–[46], BAK is recruited via His-tag to liposomes containing 2.5 µM of the lipid 1,2-dioleoyl-sn-glycero-3-[(N-(5-amino-1-carboxypentyl)iminodiacetic acid)succinyl] (nickel salt), DGS-NTA(Ni).
To probe autoactivation with full-length BAK, we mutated hydrophobic residues at positions (0)−(6) of the BH3 to alanine or arginine, and D83, which forms the conserved salt bridge (s) with R127, to alanine (Fig. 2a). The BH3 residues participate in autoactivation from the ligand side [hydrophobic positions (0)–(5) and D83(s)] and also from the receptor groove side [hydrophobic positions (3)–(5)] (Fig. 2a). Thus, substitutions at positions (3)–(5) should affect receptor and ligand activities and are predicted to impact BAK activation more severely than mutations of positions (0)–(2), which affect only ligand activity. […] In contrast, almost all (2)–(5) and (s) missense mutants were considerably impaired in autoactivation (Fig. 2b and Supplementary Fig. 3a). […] Despite impairment in autoactivation, all missense mutants were directly activated by BID BH3 peptide, although they induced lower level of permeabilization compared to WT BAK (Fig. 2b and Supplementary Fig. 3a).
We performed liposome permeabilization assays as previously described[43]–[46]. […] (nickel salt) [DGS NTA(Ni), 2.5 μM final concentration in each assay] (Avanti Polar Lipids). We prepared 12.5 mM fluorophore; 8-aminonaphthalene-1, 3, 6-trisulfonic acid, disodium salt (ANTS) and 45 mM quencher; p-xylene-bis-pyridiniumbromide (DPX) in LUV buffer (10 mM HEPES pH 6.8, 200 mM KCl and 5 mM MgCl2). We mixed the lipid film in ANTS/DPX solution by vortexing and sonication (~15 min) followed by extrusion through polycarbonate membrane of 2 μm pore size (Avanti Polar lipids) to generate homogenous large unilamellar vesicles (LUVs). We separated LUVs from free ANTS/DPX by S500 size exclusion chromatography and stored them at 4 °C in the dark. We prepared peptide and protein dilutions in 96-well black flat bottom plates (Costar) kept on ice. ANTS release from permeabilized liposomes causes an increase in fluorescence, which we monitored at 37 °C for 90 min using a CLARIOSTAR microplate reader (BMG Labtech) set at excitation and emission wavelengths of 360 and 530 nm, respectively. We normalized the data relative to maximum and minimum fluorescence induced by 3% CHAPS and buffer controls, respectively. We quantified liposome permabilization by integrating area under curve (AUC) of normalized traces based on the Simpson’s equation, and analyzed that data in Excel and GraphPad Prism. AUC measurements reflect the kinetic and extent of liposome permeabilization and provide quantitative means for comparison between different experimental conditions (e.g., BAK mutants with gross or partial variation in activity). Variability in permeabilization of different liposomes is common and our analyses compare among conditions investigated with the same liposomes. Although the absolute permeabilization values may differ, the trends for the same conditions are always very similar between different liposomes.

B1: D83A (s): BAK missense mutant, autoactivation-impaired; in cells as mCherry fusion (protein)
chain: MASGQGPGPPRQECGEPALPSASEEQVAQDTEEVFRSYVFYRHQQEQEAEGVAAPADPEMVTLPLQPSSTMGQVGRQLAIIGADINRRYDSEFQTMLQHLQPTAENAYEYFTKIATSLFESGINWGRVVALLGFGYRLALHVYQHGLTGFLGQVTRFVVDFMLHHCIARWIAQRGGWVAALNLGNG
modifications: left off: His6, C-terminal, kept
notes: in cells as mCherry fusion
For B1, the “cell death with Dox + TRAIL + CHX compared to Dox alone” value [1] was “boosted the levels of cell death”, the “SYTOX Green +ve counts/confluence AUC of kinetic traces” value (“SYTOX Green +ve counts/confluence AUC” below) ([2]; Dox 6.25 ng/mL) was 251.48 and the “SYTOX Green +ve counts/confluence AUC” value ([2]; Dox 6.25 ng/mL + qVD) was 178.809. For the same molecule, the “SYTOX Green +ve counts/confluence AUC” value ([2]; Dox 12.5 ng/mL) was 298.87, the “SYTOX Green +ve counts/confluence AUC” value ([2]; Dox 12.5 ng/mL + qVD) was 216.467 and the “SYTOX Green +ve counts/confluence AUC” value ([2]; Dox 25 ng/mL) was 546.446. The “SYTOX Green +ve counts/confluence AUC” value ([2]; Dox 25 ng/mL + qVD) was 167.305, the “SYTOX Green +ve counts/confluence AUC” value ([2]; Dox 50 ng/mL) was 973.937 and the “SYTOX Green +ve counts/confluence AUC” value ([2]; Dox 50 ng/mL + qVD) was 180.875. The “SYTOX Green +ve counts/confluence AUC” value ([2]; Dox 100 ng/mL) was 1429.67, the “SYTOX Green +ve counts/confluence AUC” value ([2]; Dox 100 ng/mL + qVD) was 197.929 and the “SYTOX Green +ve counts/confluence AUC” value ([2]; Dox 500 ng/mL) was 1807.16. The “SYTOX Green +ve counts/confluence AUC” value ([2]; Dox 500 ng/mL + qVD) was 226.028, the “SYTOX Green +ve counts/confluence AUC” value ([2]; Dox 1000 ng/mL) was 2018.82 and the “SYTOX Green +ve counts/confluence AUC” value ([2]; Dox 1000 ng/mL + qVD) was 223.673. For the same molecule, the Dox-induced cell death [2] was “consistently less potent at inducing apoptosis than V74A(1)”, the “AUC (48 hr) of SYTOX Green counts/confluence” value ([2]; Dox 100 ng/mL) was 54126.6 and the “AUC (48 hr) of SYTOX Green counts/confluence” value ([2]; Dox 1000 ng/mL) was 77700.1. For the same molecule, the “fold higher expression level for similar cell death compared to V74A” value ([2]; mC-BAK/actin immunoblot, Fig. 3d) was ~ 10 fold, the “flow cytometry SYTOX Green counts/confluence (48 hr)” value ([3]; Dox 100 ng/mL) was 35.2333 and the “flow cytometry SYTOX Green counts/confluence (48 hr)” value ([3]; Dox 1000 ng/mL) was 43.7667.

B2: I81R (3): BAK missense mutant (protein, UniProt Q16611 2-211, looked up, variant I81R)
Bcl-2 homologous …: ASGQGPGPPRQECGEPALPSASEEQVAQDTEEVFRSYVFYRHQQEQEAEGVAAPADPEMVTLPLQPSSTMGQVGRQLAIRGDDINRRYDSEFQTMLQHLQPTAENAYEYFTKIATSLFESGINWGRVVALLGFGYRLALHVYQHGLTGFLGQVTRFVVDFMLHHCIARWIAQRGGWVAALNLGNGPILNVLVVLGVVLLGQFVVRRFFKS
With B2 the Dox-induced cell death [2] was “inactive irrespective of Dox dose”, the “AUC (48 hr) of SYTOX Green counts/confluence” value ([2]; Dox 100 ng/mL) was 331.061 and the “AUC (48 hr) of SYTOX Green counts/confluence” value ([2]; Dox 1000 ng/mL) was 348.847. For the same molecule, the “flow cytometry SYTOX Green counts/confluence (48 hr)” value ([3]; Dox 100 ng/mL) was 2.517, the “flow cytometry SYTOX Green counts/confluence (48 hr)” value ([3]; Dox 1000 ng/mL) was 4.75 and the “difference in Tm compared to WT” value (BAK [4]) was < 2 °C.

B3: WT BAK: C-terminus truncated recombinant human BAK with C-terminal 6× histidine tag (protein, UniProt Q16611 2-211, looked up)
Bcl-2 homologous …: B2 Bcl-2 homologous … with R80I
With B3 the Melting temperature for 3 exps, Mean (BAK [5]) was 77 °C and the “BAK dose above which liposomes are spontaneously permeabilized” value [6] was > 100 nM.
